Test results reported in paper PMC8633789, “Transmembrane topology and oligomeric nature of an astrocytic membrane protein, MLC1” (Open Biology, 2021).

What was measured:
CLC-ck2 = assay: SEC-MALS; SEC-MALS-RI, Superdex-200 Increase 10/300 GL, 1 mg/ml in 200 µl, 150 mM NaCl, 20 mM HEPES pH 7.5, 2 mM DDM
[1] = target: codon-optimized chicken MLC1 with 6× His-tag (chicken); assay: cross-linking; glutaraldehyde (400-fold molar excess) on protein-detergent micelles (0.5-0.9 µg protein/µl), 1, 10 or 30 min at 23°C, SDS-PAGE; cross-linking largely inhibited with 2% SDS
[2] = target: the molecule itself; assay: as above
[3] = target: the molecule itself; assay: single-molecule photobleaching (TIRFM); proteoliposomes (POPE:POPG 3:1, 0.1 mol% biotinyl CAP-PE, 0.4 µg protein/mg lipid) immobilised on a coated coverslip; distribution of GFP bleaching steps compared with binomial models, p = 0.8
[4] = target: the molecule itself; assay: SEC-MALS; SEC-MALS-RI, Superdex-200 Increase 10/300 GL, 1 mg/ml in 200 µl, 150 mM NaCl, 20 mM HEPES pH 7.5, 2 mM DDM

## CLC-ck2 (natural protein)
CLC-ck2
  stoichiometry N: 2

## codon-optimized chicken MLC1 with 6× His-tag (natural protein)
[1]
  stoichiometry N: 3

B1: 3× Flag-tagged human MLC1 (natural protein, UniProt Q15049-1 1-377, looked up)
chain: MTQEPFREELAYDRMPTLERGRQDPASYAPDAKPSDLQLSKRLPPCFSHKTWVFSVLMGSCLLVTSGFSLYLGNVFPAEMDYLRCAAGSCIPSAIVSFTVSRRNANVIPNFQILFVSTFAVTTTCLIWFGCKLVLNPSAININFNLILLLLLELLMAATVIIAARSSEEDCKKKKGSMSDSANILDEVPFPARVLKSYSVVEVIAGISAVLGGIIALNVDDSVSGPHLSVTFFWILVACFPSAIASHVAAECPSKCLVEVLIAISSLTSPLLFTASGYLSFSIMRIVEMFKDYPPAIKPSYDVLLLLLLLVLLLQAGLNTGTAIQCVRFKVSARLQGASWDTQNGPQERLAGEVARSPLKEFDKEKAWRAVVVQMAQ
notes: human MLC1 (megalencephalic leukoencephalopathy with subcortical cysts protein 1), cDNA NM_015166.3 from GenScript; The predicted mass of the tagged monomer (approx. 44 kDa) fits the whole protein; also called 3× Flag-hMLC1; hMLC1; not shown: 3× Flag, N-terminal, kept
[2]
  stoichiometry N: 3

B2: 3× Flag-tagged hMLC1-GFP (natural protein, human, UniProt Q15049-1 1-377, looked up)
chain: MTQEPFREELAYDRMPTLERGRQDPASYAPDAKPSDLQLSKRLPPCFSHKTWVFSVLMGSCLLVTSGFSLYLGNVFPAEMDYLRCAAGSCIPSAIVSFTVSRRNANVIPNFQILFVSTFAVTTTCLIWFGCKLVLNPSAININFNLILLLLLELLMAATVIIAARSSEEDCKKKKGSMSDSANILDEVPFPARVLKSYSVVEVIAGISAVLGGIIALNVDDSVSGPHLSVTFFWILVACFPSAIASHVAAECPSKCLVEVLIAISSLTSPLLFTASGYLSFSIMRIVEMFKDYPPAIKPSYDVLLLLLLLVLLLQAGLNTGTAIQCVRFKVSARLQGASWDTQNGPQERLAGEVARSPLKEFDKEKAWRAVVVQMAQ
notes: human MLC1, cDNA NM_015166.3; probably as for 3× Flag-hMLC1 (HEK293S GnTI-); also called 3× F-hMLC1-G; 3× F-hMLC1-GFP; source: reconstituted into POPE:POPG proteoliposomes; not shown: 3× Flag, N-terminal, kept; GFP, C-terminal, kept
[3]
  stoichiometry N: 3

B3: CLC-ec1 (natural protein, UniProt P37019 1-473, looked up)
chain: MKTDTPSLETPQAARLRRRQLIRQLLERDKTPLAILFMAAVVGTLVGLAAVAFDKGVAWLQNQRMGALVHTADNYPLLLTVAFLCSAVLAMFGYFLVRKYAPEAGGSGIPEIEGALEDQRPVRWWRVLPVKFFGGLGTLGGGMVLGREGPTVQIGGNIGRMVLDIFRLKGDEARHTLLATGAAAGLAAAFNAPLAGILFIIEEMRPQFRYTLISIKAVFIGVIMSTIMYRIFNHEVALIDVGKLSDAPLNTLWLYLILGIIFGIFGPIFNKWVLGMQDLLHRVHGGNITKWVLMGGAIGGLCGLLGFVAPATSGGGFNLIPIATAGNFSMGMLVFIFVARVITTLLCFSSGAPGGIFAPMLALGTVLGTAFGMVAVELFPQYHLEAGTFAIAGMGALLAASIRAPLTGIILVLEMTDNYQLILPMIITGLGATLLAQFTGGKPLYSAILARTLAKQEAEQLARSKAASASENT
notes: CLC-ec1, control membrane protein, approximately 100 kDa as a dimer; also called CLC-ec1 dimer
[4]
  stoichiometry N: 2
